Experimental data published in publication PMC4519966.

Assay: Western blot (data not shown)
Settings: glycan lost; control: wild-type NOS1AP

expression_or_secretion, no change:
NOS1AP (CAPON): S47A, NOS1AP (CAPON): S183A, NOS1AP (CAPON): S204A, NOS1AP (CAPON): S269A, NOS1AP (CAPON): S271A
